Like-named read-outs stand apart in the source and are kept apart here.
Columns and labels:
[1] = target: SARS-CoV-2 WA-1 S-2P spike protein (SARS-CoV-2) (UniProt P0DTC2)
[2] = target: SARS-CoV-2 Omicron BA.2.12.1 spike protein (on pseudotyped lentivirus) (SARS-CoV-2) (UniProt P0DTC2)
[3] = target: SARS-CoV-2 Omicron XBB spike protein (on pseudotyped lentivirus) (SARS-CoV-2) (UniProt P0DTC2)
[4] = target: SARS-CoV-2 Omicron BA.4.6 spike protein (on pseudotyped lentivirus) (SARS-CoV-2)
[5] = target: SARS-CoV-2 Omicron BA.4/BA.5 spike protein (on pseudotyped lentivirus) (SARS-CoV-2) (UniProt P0DTC2)
[6] = target: SARS-CoV-2 Omicron BA.2.75.2 spike protein (on pseudotyped lentivirus) (SARS-CoV-2)
[7] = target: SARS-CoV-2 Omicron BA.2.75 spike protein (on pseudotyped lentivirus) (SARS-CoV-2) (UniProt P0DTC2)
[8] = target: SARS-CoV-2 Omicron BJ.1 spike protein (on pseudotyped lentivirus) (SARS-CoV-2) (UniProt P0DTC2)
[9] = target: SARS-CoV-2 Omicron BA.1 spike protein (on pseudotyped lentivirus) (SARS-CoV-2) (UniProt P0DTC2)
[10] = target: SARS-CoV-2 Omicron BQ.1.1 spike protein (on pseudotyped lentivirus) (SARS-CoV-2) (UniProt P0DTC2)
[11] = target: SARS-CoV-2 Omicron BA.4.6 spike protein (on pseudotyped lentivirus) (SARS-CoV-2); remark: listed apart in the source
[12] = target: SARS-CoV-2 Omicron BA.4/BA.5 spike protein (on pseudotyped lentivirus) (SARS-CoV-2) (UniProt P0DTC2); remark: listed apart in the source

With LY-CoV1404 (antibody) the % inhibition of ACE2 binding [1] was 99%, the neutralization IC50 [2] was 1 ng/mL and the neutralization IC80 [2] was 4 ng/mL. The neutralization IC50 [3] was > 10000 ng/mL, the neutralization IC80 [3] was > 10000 ng/mL and the neutralization IC50 [4] was 0.4 ng/mL. It also gave a neutralization IC80 [4] of 1 ng/mL, a neutralization IC50 [5] of 1.4 ng/mL and a neutralization IC80 [5] of 3 ng/mL. For the same substance, the neutralization IC50 [6] was 1 ng/mL, the neutralization IC80 [6] was 5 ng/mL and the neutralization IC50 [7] was 3 ng/mL. For the same substance, the neutralization IC80 [7] was 15 ng/mL, the neutralization IC50 [8] was > 10000 ng/mL and the neutralization IC80 [8] was > 10000 ng/mL. The neutralization IC50 [9] was 2 ng/mL, the neutralization IC80 [9] was 5 ng/mL and the neutralization IC50 [10] was > 10000 ng/mL. The neutralization IC80 [10] was > 10000 ng/mL, the neutralization IC80 [11] was 1.4 ng/mL and the neutralization IC50 [12] was 1 ng/mL.

In the case of BD55-5514 (antibody), the % inhibition of ACE2 binding [1] is reported as 99%.

CB6 (antibody) showed a % inhibition of ACE2 binding [1] of 93%.

Work on S2H97 (antibody) yielded a % inhibition of ACE2 binding [1] of -3%.

With DH1047 (antibody) the % inhibition of ACE2 binding [1] was 113%.
